Two substances from US12467929 can be followed below.

In assay [1] the target is recombinant UBE3A protein (Homo sapiens (Human)) (UniProt Q05086). The assay is described as follows: 3-step Simoa; capture GTX; UBE3A 7.81 ng/ml.
Assay [2] has the same target. The assay is described as follows: Simoa; capture GTX; 3E5 0.4 ug/ml; UBE3A 0.00640 ng/ml.
Assay [3] has the same target. The assay is described as follows: Simoa; capture GTX, no helper beads; 3E5 0.1 ug/ml; UBE3A 0.00640 ng/ml.
For assay [4] the target is unchanged. The assay is described as follows: 3-step Simoa, 120 min bead step; capture GTX; UBE3A 20.0 ng/ml.
The target is the same in assay [5]. The assay is described as follows: Simoa head-to-head, Table 10; capture MS 2F6; UBE3A 4.00 ng/ml.
Assay [6] has the same target. The assay is described as follows: Simoa; capture GTX + helper beads; 3E5 0.2 ug/ml; UBE3A 0.00640 ng/ml.
For assay [7] the target is unchanged. The assay is described as follows: Simoa; capture GTX; 3E5 0.2 ug/ml; UBE3A 0.800 ng/ml.
Assay [8] has the same target. The assay is described as follows: Simoa; capture GTX; 3E5 0.1 ug/ml; UBE3A 0.160 ng/ml.
For assay [9] the target is unchanged. The assay is described as follows: Simoa; capture GTX, no helper beads; 3E5 0.4 ug/ml; UBE3A 0.160 ng/ml.

Chain of UniProt Q05086 (Q05086 whole entry): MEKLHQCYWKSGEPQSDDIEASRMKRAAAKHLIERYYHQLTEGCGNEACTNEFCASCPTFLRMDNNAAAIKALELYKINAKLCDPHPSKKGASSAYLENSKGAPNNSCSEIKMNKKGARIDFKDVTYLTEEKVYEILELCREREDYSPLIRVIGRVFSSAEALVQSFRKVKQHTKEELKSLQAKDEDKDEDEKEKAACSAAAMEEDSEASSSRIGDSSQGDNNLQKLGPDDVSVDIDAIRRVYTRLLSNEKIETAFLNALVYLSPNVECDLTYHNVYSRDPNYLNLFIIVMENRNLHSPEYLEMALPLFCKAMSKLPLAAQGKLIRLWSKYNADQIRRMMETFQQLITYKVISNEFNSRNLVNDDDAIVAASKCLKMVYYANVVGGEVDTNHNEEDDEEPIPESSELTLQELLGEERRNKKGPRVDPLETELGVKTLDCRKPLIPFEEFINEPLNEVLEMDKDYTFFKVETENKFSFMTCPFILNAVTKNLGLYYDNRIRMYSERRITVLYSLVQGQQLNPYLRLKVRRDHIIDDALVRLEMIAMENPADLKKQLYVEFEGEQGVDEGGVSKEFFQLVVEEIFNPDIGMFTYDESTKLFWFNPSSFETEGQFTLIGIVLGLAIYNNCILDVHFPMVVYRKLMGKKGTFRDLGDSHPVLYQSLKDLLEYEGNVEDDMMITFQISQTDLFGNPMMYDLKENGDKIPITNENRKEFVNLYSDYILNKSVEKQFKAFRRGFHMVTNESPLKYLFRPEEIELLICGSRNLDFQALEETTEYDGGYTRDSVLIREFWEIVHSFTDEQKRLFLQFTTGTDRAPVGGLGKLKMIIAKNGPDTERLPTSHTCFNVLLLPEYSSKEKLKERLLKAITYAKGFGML

Consider NB500-240 (Novus) (antibody), for which, in assay [1], the AEB1 was determined as 0.0143, the AEB2 is 0.0128, the Ave AEB came out at 0.0135 and the Signal to Background amounted to 6.2.

For the substance “anti-UBE3A antibody 3E5 (SAB1404508-100 ug, Millipore-Sigma)”, the AEB1 in assay [2] amounted to 0.0671; in [3] it was 0.0087; in assay [4] it was 2.8; in assay [5], 0.132; in [6], 0.0133; in assay [7], 0.355. Besides, the AEB1 in [8] turned out to be 0.0828; in [9], 0.1. In addition, the AEB2 in [2] was found to be 0.0638; in [3] it was 0.0092; in assay [4] it was 2.88; in [5], 0.127; in [6], 0.0127; in assay [7] it was 0.378. Besides, the AEB2 in [8] came to 0.0846; in [9] it was 0.108. The AEB3 in assay [2] is 0.0865; in [7], 0.358. Further, the Average AEB stood at 0.0725 in [2]; 0.0089 in [3]; 0.013 in assay [6]; 0.364 in assay [7]; 0.0837 in assay [8]; 0.104 in [9]. Moreover, the Signal to Background was 1.16 in assay [2]; 1.56 in [3]; 1660 in assay [4]; 9.58 in assay [5]; 1.34 in assay [6]; 9.26 in assay [7]. Moreover, the Signal to Background turned out to be 4.34 in assay [8] and 5.33 in assay [9]. In addition, the Ave AEB in [4] stood at 2.84; in assay [5], 0.13.
